Here are results for 12 molecules from US20240002544A1 (NOVIMMUNE, published 2024).

Where a chain is given by its changes, count along the chain named.

Sequences and labels used below:
B1: AI5O30/N (bispecific antibody, human IgG1, kappa, lambda, L234A L235A)
heavy: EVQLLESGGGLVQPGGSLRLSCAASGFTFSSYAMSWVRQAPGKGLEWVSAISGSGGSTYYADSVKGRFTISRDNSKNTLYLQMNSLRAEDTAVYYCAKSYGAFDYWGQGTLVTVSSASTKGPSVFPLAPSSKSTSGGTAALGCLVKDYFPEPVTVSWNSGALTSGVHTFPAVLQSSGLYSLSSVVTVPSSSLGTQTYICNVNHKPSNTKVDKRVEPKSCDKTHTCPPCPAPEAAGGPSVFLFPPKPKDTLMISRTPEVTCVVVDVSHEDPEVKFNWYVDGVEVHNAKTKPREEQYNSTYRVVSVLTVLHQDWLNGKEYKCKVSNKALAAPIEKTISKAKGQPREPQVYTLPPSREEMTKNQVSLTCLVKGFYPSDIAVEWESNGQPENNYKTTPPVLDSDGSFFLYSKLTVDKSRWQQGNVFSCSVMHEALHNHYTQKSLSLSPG
light 1: DIVMTQTPLSLSVTPGQPASISCKSSGDLLTFEGKTYLYWYLQKPGQPPQLLIYEVSNRFSGVPDRFSGSGSGTDFTLKISRVEAEDVGVYYCMQAHSTRFAFTFGQGTKVEIKRTVAAPSVFIFPPSDEQLKSGTASVVCLLNNFYPREAKVQWKVDNALQSGNSQESVTEQDSKDSTYSLSSTLTLSKADYEKHKVYACEVTHQGLSSPVTKSFNRGEC
light 2: not shown
notes: κλ-body, huIgG1-LALAPA; also called AI5 (AI_1A9) kappa / O30 (O1b6_1D1) lambda
B2: AI5O35/N (bispecific antibody, human IgG1, kappa, lambda, L234A L235A)
heavy: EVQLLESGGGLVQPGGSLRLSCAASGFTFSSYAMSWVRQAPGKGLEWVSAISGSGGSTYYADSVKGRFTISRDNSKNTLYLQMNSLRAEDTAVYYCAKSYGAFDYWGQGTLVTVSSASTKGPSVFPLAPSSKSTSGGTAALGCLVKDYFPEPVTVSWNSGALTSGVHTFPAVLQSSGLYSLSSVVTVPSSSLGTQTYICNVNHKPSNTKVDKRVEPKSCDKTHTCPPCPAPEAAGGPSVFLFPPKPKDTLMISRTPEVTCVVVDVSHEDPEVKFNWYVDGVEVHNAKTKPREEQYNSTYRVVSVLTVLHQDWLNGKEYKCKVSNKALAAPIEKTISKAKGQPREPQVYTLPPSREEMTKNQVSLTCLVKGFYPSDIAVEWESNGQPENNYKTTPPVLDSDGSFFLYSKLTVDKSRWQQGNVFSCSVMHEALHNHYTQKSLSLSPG
light 1: B1 light 1
light 2: QPVLTQPVSLSASPGASVSLTCTLRSDIRVRDYRIFWYQQKPGSPPQYLLRYKTDSDKQQGSGVPSRFSGSKDASANAGILLISGLQSEDEADYYCMIWHRTTGTSLVFGGGTKLTVLGQPKAAPSVTLFPPSSEELQANKATLVCLISDFYPGAVTVAWKADSSPVKAGVETTTPSKQSNNKYAASSYLSLTPEQWKSHRSYSCQVTHEGSTVEKTVAPTECS
notes: κλ-body, huIgG1-LALAPA; also called AI5 (AI_1A9) kappa / O35 (Ob8_A10) lambda
B3: AI5O41/N (bispecific antibody, human IgG1, kappa, lambda, L234A L235A)
heavy: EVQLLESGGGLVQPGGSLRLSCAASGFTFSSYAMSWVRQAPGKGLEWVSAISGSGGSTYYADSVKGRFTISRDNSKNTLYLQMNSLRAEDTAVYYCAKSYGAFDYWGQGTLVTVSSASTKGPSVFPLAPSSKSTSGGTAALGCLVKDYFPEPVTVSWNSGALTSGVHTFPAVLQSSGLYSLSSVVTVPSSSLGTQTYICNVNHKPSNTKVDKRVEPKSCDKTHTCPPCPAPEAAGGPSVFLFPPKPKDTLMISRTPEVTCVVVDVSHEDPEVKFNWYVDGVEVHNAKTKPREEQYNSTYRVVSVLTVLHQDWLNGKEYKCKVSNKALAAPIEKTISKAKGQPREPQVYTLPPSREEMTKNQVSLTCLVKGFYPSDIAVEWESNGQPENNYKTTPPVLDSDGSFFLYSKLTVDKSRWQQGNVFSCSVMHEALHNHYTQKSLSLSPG
light 1: B1 light 1
light 2: SYVLTQPPSVSVAPGKTARITCGGNKIGHRAVHWYQQKPGQAPVLVIYYTYERPSGIPERFSGSNSGNTATLTISRVEAGDEADYYCQVWDWYSEGGVVFGGGTKLTVLGQPKAAPSVTLFPPSSEELQANKATLVCLISDFYPGAVTVAWKADSSPVKAGVETTTPSKQSNNKYAASSYLSLTPEQWKSHRSYSCQVTHEGSTVEKTVAPTECS
notes: κλ-body, huIgG1-LALAPA; also called AI5 (AI_1A9) kappa / O41 (Ob9_1A11) lambda
B4: AI10O35/N (bispecific antibody, human IgG1, kappa, lambda, L234A L235A)
heavy: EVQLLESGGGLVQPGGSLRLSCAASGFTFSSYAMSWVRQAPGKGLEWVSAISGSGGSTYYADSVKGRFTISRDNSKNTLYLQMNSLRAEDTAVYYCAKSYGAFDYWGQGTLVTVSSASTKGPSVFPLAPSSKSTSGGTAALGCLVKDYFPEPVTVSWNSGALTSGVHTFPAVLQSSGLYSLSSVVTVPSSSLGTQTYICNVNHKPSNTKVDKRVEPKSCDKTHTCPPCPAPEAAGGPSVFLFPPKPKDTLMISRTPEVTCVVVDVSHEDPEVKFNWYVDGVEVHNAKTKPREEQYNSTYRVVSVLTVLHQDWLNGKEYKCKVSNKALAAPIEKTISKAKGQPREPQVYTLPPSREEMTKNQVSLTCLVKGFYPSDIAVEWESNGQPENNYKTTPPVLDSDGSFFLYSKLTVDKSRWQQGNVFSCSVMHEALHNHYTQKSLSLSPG
light 1: B1 light 1 with T31E, E33A, S98G, T99S, R100K, F101I, A102G
light 2: B2 light 2
notes: κλ-body, huIgG1-LALAPA; also called AI10 (AI_1B6) kappa / O35 (Ob8_A10) lambda
B5: AI10O30/N (bispecific antibody, human IgG1, kappa, lambda, L234A L235A)
heavy: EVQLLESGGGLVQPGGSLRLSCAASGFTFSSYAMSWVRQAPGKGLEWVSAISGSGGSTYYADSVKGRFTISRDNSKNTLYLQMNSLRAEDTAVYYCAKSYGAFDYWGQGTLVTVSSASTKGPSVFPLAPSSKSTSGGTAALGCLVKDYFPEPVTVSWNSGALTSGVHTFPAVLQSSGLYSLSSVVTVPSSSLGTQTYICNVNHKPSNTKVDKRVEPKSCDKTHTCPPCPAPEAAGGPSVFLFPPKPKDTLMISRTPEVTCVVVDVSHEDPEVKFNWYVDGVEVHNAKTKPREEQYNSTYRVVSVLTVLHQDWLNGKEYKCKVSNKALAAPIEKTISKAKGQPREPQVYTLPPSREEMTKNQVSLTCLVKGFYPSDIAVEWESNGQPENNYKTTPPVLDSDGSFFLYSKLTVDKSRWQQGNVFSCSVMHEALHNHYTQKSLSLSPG
light 1: B1 light 1 with T31E, E33A, S98G, T99S, R100K, F101I, A102G
light 2: not shown
notes: κλ-body, huIgG1-LALAPA; also called AI10 (AI_1B6) kappa / O30 (O1b6_1D1) lambda
B6: AI10O41/N (bispecific antibody, human IgG1, kappa, lambda, L234A L235A)
heavy: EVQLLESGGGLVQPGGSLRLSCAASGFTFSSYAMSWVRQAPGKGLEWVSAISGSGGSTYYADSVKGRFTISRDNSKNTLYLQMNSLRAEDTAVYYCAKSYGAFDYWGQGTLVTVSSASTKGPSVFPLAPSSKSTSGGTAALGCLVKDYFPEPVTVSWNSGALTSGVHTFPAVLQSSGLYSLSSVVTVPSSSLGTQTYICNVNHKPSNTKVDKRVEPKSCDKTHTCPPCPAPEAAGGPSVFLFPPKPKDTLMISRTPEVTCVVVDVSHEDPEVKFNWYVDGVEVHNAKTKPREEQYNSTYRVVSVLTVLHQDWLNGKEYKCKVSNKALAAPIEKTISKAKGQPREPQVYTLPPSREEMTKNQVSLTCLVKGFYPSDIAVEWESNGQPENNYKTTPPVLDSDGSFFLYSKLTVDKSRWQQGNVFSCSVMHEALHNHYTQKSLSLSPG
light 1: B1 light 1 with T31E, E33A, S98G, T99S, R100K, F101I, A102G
light 2: B3 light 2
notes: κλ-body, huIgG1-LALAPA; also called AI10 (AI_1B6) kappa / O41 (Ob9_1A11) lambda
B7: AI3O41/N (bispecific antibody, human IgG1, kappa, lambda, L234A L235A)
heavy: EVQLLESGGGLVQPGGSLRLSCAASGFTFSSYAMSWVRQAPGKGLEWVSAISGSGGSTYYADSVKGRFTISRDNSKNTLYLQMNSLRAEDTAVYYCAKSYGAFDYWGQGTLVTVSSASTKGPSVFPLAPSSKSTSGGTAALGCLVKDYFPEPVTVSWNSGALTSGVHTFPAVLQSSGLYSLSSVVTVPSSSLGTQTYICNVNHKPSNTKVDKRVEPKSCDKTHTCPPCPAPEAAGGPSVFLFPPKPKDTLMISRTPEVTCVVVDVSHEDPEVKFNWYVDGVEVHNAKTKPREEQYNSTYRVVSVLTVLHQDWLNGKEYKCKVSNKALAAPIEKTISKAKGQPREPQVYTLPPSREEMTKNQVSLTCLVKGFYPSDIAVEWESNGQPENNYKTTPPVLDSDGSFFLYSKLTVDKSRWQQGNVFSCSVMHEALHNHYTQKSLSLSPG
light 1: not shown
light 2: B3 light 2
notes: κλ-body, IgG1 LALAPA; also called AI3 (AI_1H5) kappa / O41 (Ob9_1A11) lambda
B8: AI3O35/N (bispecific antibody, human IgG1, kappa, lambda, L234A L235A)
heavy: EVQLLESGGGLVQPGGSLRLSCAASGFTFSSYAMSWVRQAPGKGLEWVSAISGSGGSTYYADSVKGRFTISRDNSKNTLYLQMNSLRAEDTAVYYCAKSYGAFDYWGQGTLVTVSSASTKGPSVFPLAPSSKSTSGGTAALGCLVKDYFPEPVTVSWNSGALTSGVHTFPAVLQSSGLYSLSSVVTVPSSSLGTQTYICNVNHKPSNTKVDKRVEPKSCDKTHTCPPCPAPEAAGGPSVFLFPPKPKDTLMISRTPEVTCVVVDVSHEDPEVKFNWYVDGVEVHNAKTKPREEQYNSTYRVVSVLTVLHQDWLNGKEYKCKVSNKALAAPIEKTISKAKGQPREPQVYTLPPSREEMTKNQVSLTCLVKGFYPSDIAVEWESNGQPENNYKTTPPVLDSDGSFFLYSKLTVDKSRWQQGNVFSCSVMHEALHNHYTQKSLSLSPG
light 1: not shown
light 2: B2 light 2
notes: κλ-body, IgG1 LALAPA; also called AI3 (AI_1H5) kappa / O35 (Ob8_A10) lambda
B9: 1a28/AC84/N (bispecific antibody, human IgG1, kappa, L234A L235A)
heavy 1: QSVLTQPPSVSAAPGQKVTISCSGSSSNIGIGLVSWYQQLPGTAPKLLIYNVNTRPSGIPDRFSGSKSGTSATLGITGLQTGDEADYYCGTWDFSYRVDFGGGTKLTVLSSASTKGPSVFPLAPSSKSTSGGTAALGCLVKDYFPEPVTVSWNSGALTSGVHTFPAVLQSSGLYSLSSVVTVPSSSLGTQTYICNVNHKPSNTKVDKKVEPKSCDKTHTCPPCPAPEAAGGPSVFLFPPKPKDTLMISRTPEVTCVVVDVSHEDPEVKFNWYVDGVEVHNAKTKPREEQYNSTYRVVSVLTVLHQDWLNGKEYKCKVSNKALAAPIEKTISKAKGQPREPQVYTLPPCRDELTKNQVSLWCLVKGFYPSDIAVEWQSNGQTENNYKTTPPVLDSDGSFFLYSKLTVDKSRWQQGNVFSCSVMHEALHNHYTQKSLSLSPG
heavy 2: QVQLQESGPGLVKPSETLSLTCTVSGGSISSYYWSWIRQPPGKGLEWIGYIYYSGITHYNPSLKSRVTISVDTSKIQFSLKLSSVTAADTAVYYCARWGVRRDYYYYGMDVWGQGTTVTVSSASTKGPSVFPLAPSSKSTSGGTAALGCLVEDYFPEPVTVTWNSGALSSGVHTFPAVLQSSGLYSLSSVVTVPSSSLGTQTYICNVNHKPSNTKVDEKVEPKSCDKTHTCPPCPAPEAAGGPSVFLFPPKPKDTLMISRTPEVTCVVVDVSHEDPEVKFNWYVDGVEVHNAKTKPREEQYNSTYRVVSVLTVLHQDWLNGKEYKCKVSNKALAAPIEKTISKAKGQPREPQVCTLPPSRDELTKNQVSLSCAVKGFYPSDIAVEWESNGQPENNYKTTPPVLDSDGSFFLVSKLTVDKSRWQQGNVFSCSVMHEALHNHYTQKSLSLSPG
light 1: not shown
light 2: not shown
notes: LALAPA-mutated huIgG1, 1+1 crossMAb/knobs-into-hole; also called benchmark CEA×CD28 bsAb
B10: AI3AC84/N (bispecific antibody, human IgG1, kappa, lambda, L234A L235A)
heavy: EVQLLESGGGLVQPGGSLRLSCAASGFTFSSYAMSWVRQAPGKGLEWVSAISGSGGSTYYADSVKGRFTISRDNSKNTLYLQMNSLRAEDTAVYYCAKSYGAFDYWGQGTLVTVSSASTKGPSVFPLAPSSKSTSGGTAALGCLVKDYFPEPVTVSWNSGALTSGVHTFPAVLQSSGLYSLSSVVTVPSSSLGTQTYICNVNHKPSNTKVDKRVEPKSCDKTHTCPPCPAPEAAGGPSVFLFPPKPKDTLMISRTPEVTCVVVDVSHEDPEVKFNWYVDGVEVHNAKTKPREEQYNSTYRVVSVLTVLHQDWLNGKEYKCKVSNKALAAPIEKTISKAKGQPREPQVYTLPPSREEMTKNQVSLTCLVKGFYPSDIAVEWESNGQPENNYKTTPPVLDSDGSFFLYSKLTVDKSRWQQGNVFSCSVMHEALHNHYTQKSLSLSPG
light 1: not shown
light 2: QSVLTQPPSVSAAPGQKVTISCSGSSSNIGIGLVSWYQQLPGTAPKLLIYNVNTRPSGIPDRFSGSKSGTSATLGITGLQTGDEADYYCGTWDFSYRVDFGGGTKLTVLGQPKAAPSVTLFPPSSEELQANKATLVCLISDFYPGAVTVAWKADSSPVKAGVETTTPSKQSNNKYAASSYLSLTPEQWKSHRSYSCQVTHEGSTVEKTVAPTECS
notes: κλ-body, IgG1 LALAPA; also called AI3 (AI_1H5) kappa / AC84 (AC1g6_1F1) lambda
B11: AI5AC84/N (bispecific antibody, human IgG1, kappa, lambda, L234A L235A)
heavy: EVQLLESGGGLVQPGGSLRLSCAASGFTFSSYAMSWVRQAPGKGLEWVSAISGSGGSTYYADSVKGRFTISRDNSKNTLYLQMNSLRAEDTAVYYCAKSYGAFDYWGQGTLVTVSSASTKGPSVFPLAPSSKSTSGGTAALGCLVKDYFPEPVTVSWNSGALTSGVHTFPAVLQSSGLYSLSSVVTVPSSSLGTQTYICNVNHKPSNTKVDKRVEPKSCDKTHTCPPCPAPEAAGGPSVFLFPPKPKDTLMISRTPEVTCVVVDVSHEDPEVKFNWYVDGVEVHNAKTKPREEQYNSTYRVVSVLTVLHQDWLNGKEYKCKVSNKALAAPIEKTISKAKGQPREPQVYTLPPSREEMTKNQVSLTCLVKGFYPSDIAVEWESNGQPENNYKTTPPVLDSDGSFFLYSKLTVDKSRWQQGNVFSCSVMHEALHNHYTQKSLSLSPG
light 1: B1 light 1
light 2: B10 light 2
notes: κλ-body, IgG1 LALAPA; also called AI5 (AI_1A9) kappa / AC84 (AC1g6_1F1) lambda
B12: AI10AC84/N (bispecific antibody, human IgG1, kappa, lambda, L234A L235A)
heavy: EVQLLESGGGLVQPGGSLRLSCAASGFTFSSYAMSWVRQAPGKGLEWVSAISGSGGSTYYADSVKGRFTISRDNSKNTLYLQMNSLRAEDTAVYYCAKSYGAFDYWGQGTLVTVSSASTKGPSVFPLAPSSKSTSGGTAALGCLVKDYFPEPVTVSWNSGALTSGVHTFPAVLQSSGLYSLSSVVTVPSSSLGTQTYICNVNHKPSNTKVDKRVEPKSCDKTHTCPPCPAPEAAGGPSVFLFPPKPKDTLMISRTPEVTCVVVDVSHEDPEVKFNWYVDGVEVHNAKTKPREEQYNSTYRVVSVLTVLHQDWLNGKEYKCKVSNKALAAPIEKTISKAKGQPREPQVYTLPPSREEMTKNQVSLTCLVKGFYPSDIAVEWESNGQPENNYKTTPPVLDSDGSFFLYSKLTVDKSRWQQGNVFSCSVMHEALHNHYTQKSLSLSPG
light 1: B1 light 1 with T31E, E33A, S98G, T99S, R100K, F101I, A102G
light 2: B10 light 2
notes: κλ-body, IgG1 LALAPA; also called AI10 (AI_1B6) kappa / AC84 (AC1g6_1F1) lambda

The first assay concerns the target T1, human CD28 (human, UniProt P10747 19-220).
T1 construct: whole, on cells; also called huCD28
Briefly: flow cytometry on Jurkat cells. For orientation: Flow cytometry measures light scatter and fluorescence of single cells or particles in a stream.
With B1, the binding result is listed as “binds”. B2: the binding result is “binds”. The same measure, in the same setting: then B3, with “binds”.

Consider B4, for which the binding result was “binds”.

On to B5, for which the binding result is “binds”. Take B6: the binding result is “binds”. With B7, the binding result is “binds”.

On to B8, for which the binding result is “binds”.

The target of the next assay is T1, human CD28. Briefly: flow cytometry on Jurkat cells, reference bsAb.
Consider B9, for which the binding result is given as “binds”.

The target in another assay is T1, human CD28. As to the kind of experiment: worded affinity grade in the in vivo example; no assay named there.
Regarding B10, the binding result is on record as “binds”. Still for that read-out and setting: in the case of B11 it was “binds”; in that of B12, “binds”.
